Data as given in the Immune Epitope Database (IEDB).
Each block holds one sequence with its values, some of them ahead of it.

Experiments:
HLA-C*01:02 = experiment: IEDB peptide-MHC binding, purified MHC/direct/fluorescence; filed as Kd, often an IC50 or EC50 that approximates it; ≥ and ≤ were set here for values at or beyond the usual limits of such assays; conditions: source organism: Homo sapiens
HLA-A*32:07 = experiment: IEDB peptide-MHC binding, purified MHC/competitive/fluorescence; filed as Kd, often an IC50 or EC50 that approximates it; ≥ and ≤ were set here for values at or beyond the usual limits of such assays; conditions: source organism: Rickettsia felis URRWXCal2
HLA-A*32:15 = experiment: as above; conditions: source organism: Rickettsia felis URRWXCal2
HLA-B*15:02 = experiment: as above; conditions: source organism: Rickettsia felis URRWXCal2
HLA-B*15:42 = experiment: as above; conditions: source organism: Rickettsia felis URRWXCal2
HLA-B*27:20 = experiment: as above; conditions: source organism: Rickettsia felis URRWXCal2
HLA-B*40:13 = experiment: as above; conditions: source organism: Rickettsia felis URRWXCal2
HLA-B*45:06 = experiment: as above; conditions: source organism: Rickettsia felis URRWXCal2
HLA-B*46:01 = experiment: as above; conditions: source organism: Rickettsia felis URRWXCal2
HLA-B*83:01 = experiment: as above; conditions: source organism: Rickettsia felis URRWXCal2
HLA-C*06:02 = experiment: as above; conditions: source organism: Rickettsia felis URRWXCal2
HLA-C*14:02 = experiment: as above; conditions: source organism: Rickettsia felis URRWXCal2
HLA-A*80:01 = experiment: IEDB peptide-MHC binding, purified MHC/direct/fluorescence; filed as Kd, often an IC50 or EC50 that approximates it; ≥ and ≤ were set here for values at or beyond the usual limits of such assays; conditions: source organism: Human immunodeficiency virus 1
HLA-A*01:01 [1] = experiment: IEDB peptide-MHC binding, purified MHC/competitive/fluorescence; filed as Kd, often an IC50 or EC50 that approximates it; ≥ and ≤ were set here for values at or beyond the usual limits of such assays; conditions: source organism: Human immunodeficiency virus 1
HLA-A*26:01 = experiment: as above; conditions: source organism: Human immunodeficiency virus 1
HLA-A*30:01 = experiment: as above; conditions: source organism: Human immunodeficiency virus 1
HLA-B*08:01 [2] = experiment: as above; conditions: source organism: Human immunodeficiency virus 1
HLA-B*15:09 = experiment: as above; conditions: source organism: Human immunodeficiency virus 1
HLA-B*15:17 = experiment: as above; conditions: source organism: Human immunodeficiency virus 1
HLA-B*38:01 = experiment: as above; conditions: source organism: Human immunodeficiency virus 1
HLA-B*57:01 = experiment: as above; conditions: source organism: Human immunodeficiency virus 1
HLA-A*24:02 [3] = experiment: IEDB peptide-MHC binding, cellular MHC/competitive/fluorescence; ≥ and ≤ were set here for values at or beyond the usual limits of such assays; conditions: source organism: Human herpesvirus 5 strain AD169
HLA-A*01:01 [4] = experiment: IEDB peptide-MHC binding, purified MHC/competitive/radioactivity; ≥ and ≤ were set here for values at or beyond the usual limits of such assays; conditions: source organism: Human papillomavirus 16
HLA-A*01:01 [5] = experiment: IEDB peptide-MHC binding, purified MHC/competitive/fluorescence; ≥ and ≤ were set here for values at or beyond the usual limits of such assays; conditions: source organism: Homo sapiens
HLA-A*02:01 = experiment: as above; conditions: source organism: Homo sapiens
HLA-A*03:01 = experiment: as above; conditions: source organism: Homo sapiens
HLA-A*11:01 = experiment: as above; conditions: source organism: Homo sapiens
HLA-A*24:02 [6] = experiment: as above; conditions: source organism: Homo sapiens
HLA-A*25:01 = experiment: as above; conditions: source organism: Homo sapiens
HLA-A*29:02 = experiment: as above; conditions: source organism: Homo sapiens
HLA-A*31:01 = experiment: as above; conditions: source organism: Homo sapiens
HLA-A*68:02 = experiment: as above; conditions: source organism: Homo sapiens
HLA-B*07:02 = experiment: as above; conditions: source organism: Homo sapiens
HLA-B*08:01 [7] = experiment: as above; conditions: source organism: Homo sapiens
HLA-B*14:02 = experiment: as above; conditions: source organism: Homo sapiens
HLA-B*18:01 = experiment: as above; conditions: source organism: Homo sapiens
HLA-B*35:01 = experiment: as above; conditions: source organism: Homo sapiens
HLA-B*37:01 = experiment: as above; conditions: source organism: Homo sapiens
HLA-B*40:02 = experiment: as above; conditions: source organism: Homo sapiens
HLA-B*44:03 = experiment: as above; conditions: source organism: Homo sapiens
HLA-B*51:01 = experiment: as above; conditions: source organism: Homo sapiens
HLA-B*53:01 = experiment: as above; conditions: source organism: Homo sapiens
HLA-B*58:01 = experiment: as above; conditions: source organism: Homo sapiens

Kd (HLA-C*01:02): 0.0039 µM
Sequence: ELHDHGVSSL

Sequence: FMYALSRAF
Kd (HLA-A*32:07): 0.493 µM | Kd (HLA-A*32:15): 0.0277 µM | Kd (HLA-B*15:02): 0.0022 µM | Kd (HLA-B*15:42): ≥ 5 µM | Kd (HLA-B*27:20): ≤ 0.0001 µM | Kd (HLA-B*40:13): 0.0045 µM | Kd (HLA-B*45:06): ≥ 5 µM | Kd (HLA-B*46:01): 0.0066 µM | Kd (HLA-B*83:01): ≥ 5 µM | Kd (HLA-C*06:02): 0.0645 µM | Kd (HLA-C*14:02): ≤ 0.0001 µM

Sequence: GTEEIRSLF
Kd (HLA-A*80:01): ≥ 20 µM | Kd (HLA-A*01:01 [1]): ≥ 20 µM | Kd (HLA-A*26:01): ≥ 20 µM | Kd (HLA-A*30:01): 11 µM | Kd (HLA-B*08:01 [2]): ≥ 20 µM | Kd (HLA-B*15:09): ≥ 20 µM | Kd (HLA-B*15:17): 0.223 µM | Kd (HLA-B*38:01): ≥ 20 µM | Kd (HLA-B*57:01): 0.347 µM

Sequence: FFFDIDLLL
IC50 (HLA-A*24:02 [3]): ≥ 333 µM

Sequence: QVDYYGLYY
IC50 (HLA-A*01:01 [4]): 0.018 µM

IC50 (HLA-A*01:01 [5]): ≥ 20 µM | IC50 (HLA-A*02:01): ≥ 20 µM | IC50 (HLA-A*03:01): ≥ 20 µM | IC50 (HLA-A*11:01): ≥ 20 µM | IC50 (HLA-A*24:02 [6]): 1.11 µM | IC50 (HLA-A*25:01): ≥ 20 µM | IC50 (HLA-A*29:02): ≥ 20 µM | IC50 (HLA-A*31:01): ≥ 20 µM | IC50 (HLA-A*68:02): ≥ 20 µM | IC50 (HLA-B*07:02): 0.562 µM | IC50 (HLA-B*08:01 [7]): ≥ 20 µM | IC50 (HLA-B*14:02): ≥ 20 µM | IC50 (HLA-B*18:01): ≥ 20 µM | IC50 (HLA-B*35:01): 0.0477 µM | IC50 (HLA-B*37:01): ≥ 20 µM | IC50 (HLA-B*40:02): ≥ 20 µM | IC50 (HLA-B*44:03): ≥ 20 µM | IC50 (HLA-B*51:01): ≥ 20 µM | IC50 (HLA-B*53:01): 0.851 µM | IC50 (HLA-B*58:01): ≥ 20 µM
Sequence: LPSCPTNFCIF
